This series deals with the molecule itself. Put plainly: native gel or EMSA; EMM assembly assay: 35S-labelled in vitro translated substrate incubated with EMM at 30°C for 15, 45 or 90 min, EMM solubilised with 1.5% DDM, BN-PAGE, radio-imaging; homotrimer at approximately 160 kDa. In general terms: Mobility shift assays separate free from complexed probe on a gel.

By stoichiometry N is commonly meant a count of units in the complex or per binding partner.

B1: LamB (natural protein, UniProt P02943 1-446, looked up)
chain: MMITLRKLPLAVAVAAGVMSAQAMAVDFHGYARSGIGWTGSGGEQQCFQTTGAQSKYRLGNECETYAELKLGQEVWKEGDKSFYFDTNVAYSVAQQNDWEATDPAFREANVQGKNLIEWLPGSTIWAGKRFYQRHDVHMIDFYYWDISGPGAGLENIDVGFGKLSLAATRSSEAGGSSSFASNNIYDYTNETANDVFDVRLAQMEINPGGTLELGVDYGRANLRDNYRLVDGASKDGWLFTAEHTQSVLKGFNKFVVQYATDSMTSQGKGLSQGSGVAFDNEKFAYNINNNGHMLRILDHGAISMGDNWDMMYVGMYQDINWDNDNGTKWWTVGIRPMYKWTPIMSTVMEIGYDNVESQRTGDKNNQYKITLAQQWQAGDSIWSRPAIRVFATYAKWDEKWGYDYTGNADNNANFGKAVPADFNGGSFGRGDSDEWTFGAQMEIWW
modifications: 35S-methionine
notes: LamB, the 18-stranded outer membrane protein used as a model substrate; Gunasinghe et al., 2018; Thewasano et al., 2023) for the substrate constructs; also called trimeric-LamB; source: in vitro translated in rabbit reticulocyte lysate with 35S-methionine, assembled into EMM
B1: the “stoichiometry N” value is 3.

B2: OmpF (natural protein, UniProt P02931 1-362, looked up)
chain: MMKRNILAVIVPALLVAGTANAAEIYNKDGNKVDLYGKAVGLHYFSKGNGENSYGGNGDMTYARLGFKGETQINSDLTGYGQWEYNFQGNNSEGADAQTGNKTRLAFAGLKYADVGSFDYGRNYGVVYDALGYTDMLPEFGGDTAYSDDFFVGRVGGVATYRNSNFFGLVDGLNFAVQYLGKNERDTARRSNGDGVGGSISYEYEGFGIVGAYGAADRTNLQEAQPLGNGKKAEQWATGLKYDANNIYLAANYGETRNATPITNKFTNTSGFANKTQDVLLVAQYQFDFGLRPSIAYTKSKAKDVEGIGDVDLVNYFEVGATYYFNKNMSTYVDYIINQIDSDNKLGVGSDDTVAVGIVYQF
modifications: 35S-methionine
notes: OmpF, the 16-stranded outer membrane protein used as a model substrate; Gunasinghe et al., 2018; Thewasano et al., 2023) for the substrate constructs; source: in vitro translated in rabbit reticulocyte lysate with 35S-methionine, assembled into EMM
In the case of B2, the “stoichiometry N” value was determined as 3.
